From patent publication US20220195055A1 (SHANDONG BOAN BIOTECHNOLOGY, published 2022)
Like-named read-outs stand apart in the source and are kept apart here.

B1: CD25-MA251-IgG1 (antibody, V domains shown)
VH: QVQLKESGPGLVAPSQSLSITCTVSGFSLTSYGIQWVRQPPGKGLEWLGVIWAGGSTNYNSALMSRLSISKDNSKSQVFLKMNSLQTDDTAMYYCARAYGYDGSWLAYWGQGTLVTVSS
VL: QIVLSQSPAILSASPGEKVTMTCRASSSVSYMHWYQQKPGSSPKPWIFATSNLASGVPARFSGSGSGTSYSLTINRVEAEDADTYYCQQWSSNPPTFGGGTKLEIKR
notes: also called CD25Q-MA251; control antibody
B2: CD25Q11-CT848-IgG1 (antibody, V domains shown)
VH: QVQLQQWGAGLLKPSETLSLTCAVYGGSFSGSYWSWIRQSPRKGLEWIGEIDHSGSTIANPSLKSRITISLDTSKNQFFLQLRSMTAADTAVYYCARGEAFDIWGQGTMVTVSS
VL: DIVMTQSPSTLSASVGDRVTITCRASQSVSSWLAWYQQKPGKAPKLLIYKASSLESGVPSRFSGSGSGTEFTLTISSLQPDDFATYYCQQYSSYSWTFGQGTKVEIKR
notes: IgG1 expressed in HEK293
B3: CD25Q8-BT942-IgG1 (antibody, V domains shown)
VH: QVQLVQSGAEVKKPGSSVKVSCKASGGTFSSDAINWVRQAPGQGLEWMGRIIPIFGVADYAQKFQGRVTLTADKSTSTAYMDLSSLRSEDTAVFYCARERGDYSNFWYFDLWGRGTLVTVSS
VL: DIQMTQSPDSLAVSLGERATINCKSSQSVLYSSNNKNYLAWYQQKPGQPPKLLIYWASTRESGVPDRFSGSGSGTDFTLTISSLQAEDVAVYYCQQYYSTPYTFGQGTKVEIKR
notes: IgG1 expressed in HEK293

Experiments:
[1] = target: T1, CD25 protein (Sino Biological, 10165-H08H) (UniProt P01589 22-213); assay: SPR (BIAcore 8K); antibody captured by anti-human IgG Fc, CD25 protein as analyte, 1:1 model
T1 construct: Bought recombinant protein; It speaks elsewhere of human CD25; also called antigen CD25; IL-2Rα
T1 sequence (looked up): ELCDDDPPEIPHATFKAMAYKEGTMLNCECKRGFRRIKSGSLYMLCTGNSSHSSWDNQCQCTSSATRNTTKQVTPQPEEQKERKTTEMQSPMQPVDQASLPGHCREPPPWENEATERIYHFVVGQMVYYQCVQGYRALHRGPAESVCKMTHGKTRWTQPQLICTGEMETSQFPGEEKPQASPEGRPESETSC
Protocol: Antibody binding kinetics uses BIAcore8K instrument based on surface plasmon resonance (SRP) technology to measure. Anti-human IgG antibody amino was coupled to a CMS biosensor chip by the GE anti Human IgG Fc amino coupling kit (GE, cat # BR-1008-39) to obtain approximately 1000 response units (RU). For kinetic measurements, the CD25 protein (Sino Biological, 10165-H08H) was diluted 2-fold continuously with HBS-EP+1×(GE, BR-1008-26) buffer, starting at 50 nM, being diluted 2-fold for 4 concentration gradients and setting 0 concentration. The antibody to be detected: 2 μg/ml, sample injection time 70 s, flow rate 5 μL/min, stable for 5 s; CD25 protein: binding for 60 s, flow rate 30 μL/min, dissociation for 450 s; regeneration: regeneration was performed for 30 s with 3M MgCl₂ buffer, Startup 3 times. The association constant (ka) and dissociation constant (kd) were calculated using a simple one-to-one Languir binding model (BIAcore Evaluation Software version 3.2), and the equilibrium dissociation constant (KD) was calculated by the ratio kd/ka.

[2] = target: T2, CD25 on cells (SU-DHL-1 target cells; PBMC) (UniProt P01589 22-272, limits assumed); assay: cell-based or functional assay
T2 sequence (looked up): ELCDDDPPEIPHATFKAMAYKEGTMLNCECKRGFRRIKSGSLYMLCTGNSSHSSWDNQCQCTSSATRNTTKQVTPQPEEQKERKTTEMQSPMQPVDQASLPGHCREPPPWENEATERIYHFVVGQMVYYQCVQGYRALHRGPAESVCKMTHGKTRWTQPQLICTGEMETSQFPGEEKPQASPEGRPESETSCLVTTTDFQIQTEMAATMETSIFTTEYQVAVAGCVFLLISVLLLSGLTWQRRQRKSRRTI

[3] = target: T1, CD25 protein (Sino Biological, …); assay: ELISA; CD25 protein coated in a dilution series, antibody at one fixed concentration, anti-human IgG/HRP
Text: (§1) The results are shown in FIG. 2A to FIG. 2E and Table 2 to Table 6.

[4] = target: T1, CD25 protein (Sino Biological, …); assay: as above; remark: listed apart in the source
Text: as §1

[5] = target: T1, CD25 protein (Sino Biological, …); assay: as above; remark: listed apart in the source
Text: as §1

[6] = target: T2, CD25 on cells (SU-DHL-1 target cells; …); assay: cell-based or functional assay; remark: listed apart in the source
[7] = target: T1, CD25 protein (Sino Biological, …); assay: ELISA; CD25 protein coated in a dilution series, antibody at one fixed concentration, anti-human IgG/HRP; remark: listed apart in the source
Text: as §1

[8] = target: T1, CD25 protein (Sino Biological, …); assay: as above; remark: listed apart in the source
Text: as §1

[9] = target: T2, CD25 on cells (SU-DHL-1 target cells; …); assay: cell-based or functional assay; remark: listed apart in the source

Binder	Kd [1]	koff [1]	kon [1]	% PSTAT5 in CD3 positive T cells of PBMC after IL2, with 10 µg/mL antibody [2]	EC50 [3]	EC50 [4]	EC50 [5]	EC50 of simulated killing activity (Jurkat effector reporter cells, SU-DHL-1 target cells, luminescence) [6]	EC50 [7]	EC50 [8]	EC50 of simulated killing activity (Jurkat effector reporter cells, SU-DHL-1 target cells, luminescence) [9]
B1	5.19 nM	0.000912 s⁻¹	176000 M⁻¹ s⁻¹	18.5%	0.0121 µg/mL	0.017 µg/mL	0.0106 µg/mL	0.255 µg/mL	0.0141 µg/mL	0.0245 µg/mL	0.361 µg/mL
B2	3.09 nM	0.00218 s⁻¹	705000 M⁻¹ s⁻¹	15.8%						0.00916 µg/mL	
B3	3.79 nM	0.000339 s⁻¹	89600 M⁻¹ s⁻¹	16.5%						0.00226 µg/mL	
